How the values were obtained:
[1] = molecular target: T1, α5β1 integrin (R&D Systems, USA) (human, UniProt P08648 42-995; P05556 21-728); assay: indirect ELISA, integrin coated at 1 µg/ml, HRP anti-human Fc detection
T1 construct: Bought heterodimer; also called recombinant human α5β1 integrin
Procedure: (§1) The affinities of the monoclonal antibody GP5 for various integrins were measured by indirect ELISA to determine the specificity of the monoclonal antibody GP5 for beta 1 integrin. Each of recombinant human αVβ1 integrin (R&D Systems, USA), αVβ3 integrin (R&D Systems, USA), αVβ5 integrin (R&D Systems, USA), αVβ6 integrin (R&D Systems, USA), αVβ8 integrin (R&D Systems, USA), α5β1 integrin (R&D Systems, USA), and α2bβ3 integrin (R&D Systems, USA) was diluted to 1 μg/ml in 50 μl of PBS, plated in a 96-well immune plate (Corning, USA), and stored at 4° C. overnight for its adsorption. After incubation with a buffer containing 3% bovine serum albumin (Millipore, USA) at 37° C. for 1 h, the wells were treated with the monoclonal antibody GP5 sequentially diluted to concentrations of 0.01, 0.03, 0.1, 0.3, 1, 3, 100, 300, and 1000 nM (50 μl/well). The well plate was incubated at 37° C. for 2 h to allow the antibody to bind to the antigen and washed 3 times with a buffer containing 0.5% Tween 20 (Amresco, USA). The wells were treated with HRP-labeled anti-human Fc IgG secondary antibody diluted 1:3000 with PBS (50 μl/well). The well plate was incubated at 37° C. for 1 h and washed 3 times with a buffer containing 0.5% Tween 20 (Amresco, USA). […] Absorbance was measured at 450 nm using a spectrophotometer (Biotek, USA).

[2] = molecular target: T2, recombinant human αVβ1 integrin (R&D Systems, USA) (human, UniProt P06756 31-992; P05556 21-728); assay: as above
T2 construct: Bought heterodimer
Procedure: as §1

T1 sequence (P08648 42-995 limits assumed, chain 1 of 2): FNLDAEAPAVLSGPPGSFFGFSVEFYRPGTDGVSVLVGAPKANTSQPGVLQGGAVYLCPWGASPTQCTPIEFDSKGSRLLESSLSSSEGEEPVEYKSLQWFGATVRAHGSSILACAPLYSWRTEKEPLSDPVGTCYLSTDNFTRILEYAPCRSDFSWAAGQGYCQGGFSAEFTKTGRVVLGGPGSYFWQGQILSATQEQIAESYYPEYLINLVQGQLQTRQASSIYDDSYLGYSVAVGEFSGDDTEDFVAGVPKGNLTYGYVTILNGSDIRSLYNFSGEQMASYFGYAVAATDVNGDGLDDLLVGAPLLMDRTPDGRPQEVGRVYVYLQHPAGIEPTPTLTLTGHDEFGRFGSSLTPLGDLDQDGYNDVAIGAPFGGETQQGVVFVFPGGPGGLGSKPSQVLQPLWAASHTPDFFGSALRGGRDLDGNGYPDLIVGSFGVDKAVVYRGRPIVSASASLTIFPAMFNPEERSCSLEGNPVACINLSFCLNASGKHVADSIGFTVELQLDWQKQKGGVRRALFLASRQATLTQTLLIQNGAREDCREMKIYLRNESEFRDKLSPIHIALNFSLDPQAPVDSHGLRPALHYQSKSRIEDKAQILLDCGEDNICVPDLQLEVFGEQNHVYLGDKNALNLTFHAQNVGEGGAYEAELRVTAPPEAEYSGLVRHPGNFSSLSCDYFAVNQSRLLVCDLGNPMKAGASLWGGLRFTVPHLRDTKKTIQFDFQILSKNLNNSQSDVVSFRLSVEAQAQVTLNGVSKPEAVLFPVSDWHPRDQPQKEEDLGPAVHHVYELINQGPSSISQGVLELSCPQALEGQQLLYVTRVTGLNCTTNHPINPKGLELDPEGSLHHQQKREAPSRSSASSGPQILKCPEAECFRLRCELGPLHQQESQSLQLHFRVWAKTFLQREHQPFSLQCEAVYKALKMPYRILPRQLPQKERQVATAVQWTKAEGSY
T1 sequence (P05556 21-728 limits assumed, chain 2 of 2): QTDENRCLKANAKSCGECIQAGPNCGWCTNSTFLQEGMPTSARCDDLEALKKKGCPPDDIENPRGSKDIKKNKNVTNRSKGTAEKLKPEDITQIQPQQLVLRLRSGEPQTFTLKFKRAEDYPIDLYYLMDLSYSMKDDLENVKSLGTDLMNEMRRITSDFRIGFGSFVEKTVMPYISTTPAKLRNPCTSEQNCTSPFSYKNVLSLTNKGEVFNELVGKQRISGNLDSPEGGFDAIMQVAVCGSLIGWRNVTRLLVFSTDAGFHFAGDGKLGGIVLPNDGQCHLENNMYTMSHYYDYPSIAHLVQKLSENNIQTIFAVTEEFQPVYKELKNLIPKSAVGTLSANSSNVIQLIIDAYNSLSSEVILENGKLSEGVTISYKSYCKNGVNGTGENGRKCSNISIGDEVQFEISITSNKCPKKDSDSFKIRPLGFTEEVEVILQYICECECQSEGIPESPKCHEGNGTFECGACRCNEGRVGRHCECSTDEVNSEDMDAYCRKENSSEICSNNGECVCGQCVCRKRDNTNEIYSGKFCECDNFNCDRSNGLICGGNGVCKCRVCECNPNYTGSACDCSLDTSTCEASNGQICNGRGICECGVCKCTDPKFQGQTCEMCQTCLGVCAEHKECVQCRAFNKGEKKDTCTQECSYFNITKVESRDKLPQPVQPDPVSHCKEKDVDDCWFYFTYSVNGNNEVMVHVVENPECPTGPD
T2 sequence (P06756 31-992 limits assumed, chain 1 of 2): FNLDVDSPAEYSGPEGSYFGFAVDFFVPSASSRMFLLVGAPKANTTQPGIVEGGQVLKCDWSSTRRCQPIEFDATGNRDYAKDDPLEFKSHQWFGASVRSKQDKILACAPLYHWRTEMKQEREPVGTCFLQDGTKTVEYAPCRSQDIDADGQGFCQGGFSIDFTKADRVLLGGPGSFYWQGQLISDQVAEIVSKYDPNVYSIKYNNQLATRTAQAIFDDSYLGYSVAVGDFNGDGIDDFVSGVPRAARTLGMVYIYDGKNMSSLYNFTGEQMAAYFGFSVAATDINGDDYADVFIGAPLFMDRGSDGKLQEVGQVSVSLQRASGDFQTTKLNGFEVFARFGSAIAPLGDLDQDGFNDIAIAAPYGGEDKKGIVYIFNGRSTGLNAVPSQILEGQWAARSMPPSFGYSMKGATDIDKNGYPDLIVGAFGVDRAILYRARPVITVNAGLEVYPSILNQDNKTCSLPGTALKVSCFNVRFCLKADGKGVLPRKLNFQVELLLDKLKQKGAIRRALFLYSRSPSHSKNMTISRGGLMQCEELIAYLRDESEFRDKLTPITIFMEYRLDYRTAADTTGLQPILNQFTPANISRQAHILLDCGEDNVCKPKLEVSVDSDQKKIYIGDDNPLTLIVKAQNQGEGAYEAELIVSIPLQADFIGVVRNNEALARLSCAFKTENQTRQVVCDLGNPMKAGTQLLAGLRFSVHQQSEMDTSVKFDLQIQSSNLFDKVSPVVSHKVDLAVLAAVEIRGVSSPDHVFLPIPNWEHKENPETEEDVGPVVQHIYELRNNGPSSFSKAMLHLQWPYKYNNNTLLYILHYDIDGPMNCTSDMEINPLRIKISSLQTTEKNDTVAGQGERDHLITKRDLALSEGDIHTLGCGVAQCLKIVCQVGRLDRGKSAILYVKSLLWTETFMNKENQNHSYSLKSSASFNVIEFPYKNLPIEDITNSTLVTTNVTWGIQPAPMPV
T2 sequence (P05556 21-728 limits assumed, chain 2 of 2): as the sequence (P05556 21-728 limits assumed, chain 2 of 2) above

binding result [1]: binds | binding result [2]: binds
B1: monoclonal antibody GP5 (antibody, human IgG1, V domains shown)
VH: QVQLQQSGSELMKPGASVKVSCKASGYTFTNYWIEWIVQRPGHGLEWIGEILPGSVNTNYNAKFKDRATFTADTSTDTASMELSSLTSEDSAVYYCALATPYYALDSWGQGTSVTVSS
VL: DIVMTQAAPSLSVTPGESVSISCRSTESLLHSNGNTYLYWYLQKPGQSPQLLIYRMSNRASGVPDRFSGSGSGTAFTLKIRRVEAEDVGVYYCMQHLEYPFTFGAGTKLELK
notes: Full IgG made in HEK293F cells; The humanized VH is joined to a human IgG1 heavy chain constant region (CH1, CH2, CH3) and the VL to a human Ckappa; also called humanized antibody GP5; modified monoclonal antibody (GP5)
